Test results reported in the DeepSol protein solubility set.

Assay: soluble on expression in E. coli; label from the status in PepcDB or PDB records

**Q.** With “MAHHHHHHMHIGLAAAVPSPTTAPQWLQDIENQLLIRNAIELKPSQSIFDSYTTLHVSVLHLQTVEDERQRLRMERSRLTERVRELEQAAANSSLQTSYERELEAKKDALQDQLRVYMQRESDYYKALSEVKAVQEERDMLRLRSNKLDAELEQRTAELQLLHKEYTALRDEYDRVRLTVSEADRYLREVKTAKEKTVQLQHRIVTLEDEVNMLRRQLQEALKGETAAAVDKAKRANPNKDGEDAEVAPSPMHTTHSPHTDPCTTLSPNPLGAEPSHASMVISEAHTSSTLHGLCVLDDGKRFLTSGADKHIRLWNRQSPQAEKYFSSSSIALALDTSSHYLLAGCADHVVRFWDVNSLRVLEMTGHTEKVVAACLSSSAQHAFTASSDSTIKLWDVRRRESLRTLLCQSTCNDVTVAGDTVFSAHYNGKITVWDRRTATRSGEVVAHQRVATCVRVSANGQLCVSMGKDNVISVRDARVFTKTLFSVAPVQLVVMMNWARLSIAPSGQLCAVGSGRTSDLLLIRLHGGGQGDAEATDSASSPALVKVLKACVSNATSYGDQGSGSSKGPIFSTAWGASEGGPLVSISNDRCVQVWE” as the sequence, how does the “soluble on expression in E. coli” value read?
**A.** not soluble

**Q.** With “MAHHHHHHMHVKHRATGRVVATLPFEPMPTLEDVSDAFIKAESTTATTHTGDLTVPTAYDNAEEDVDGAEEGETMYAVVYDLVTPTAPGDNGDSELAAAVTAAGLLENLPADADGTCNIGETMRKLVELGAAELLTAEPLSVSQARREYNPPEAPGLLRRIVYPASQYSPYRLDRDPLHTDKLSFYRSSTVTASVPSGPPPTSCTGLHALPVWDYGEGGLYTSYFDSYDLSCPMRGPFVRPSAAGKAALVMPLSDEEHHRIFGA” as the sequence, how does the “soluble on expression in E. coli” value read?
**A.** soluble

**Q.** Which “soluble on expression in E. coli” value does the source give for “MAHHHHHHMIFIHSLRLRHNLVSKNVERCTVFAFLDADFITAIRHKVRELKRAARRQPHRSALEVYSQERPTRHHVLPPPHYFSEKVGVDCCVLYIPEVEDFPLLDAFFFVNSNPVTLVGLRMATAGEHHTTASTVRQFTECLAAYFNGWEELSRDMSWETIYVQHADSTPMNDWQRCDVVNSDNVSKKENREIVAFWEEEVHQYLAVISSADARRGEAL” here?
**A.** not soluble

**Q.** With “MAHHHHHHMILPRYAYAHADMDQKQMQKLLLMGPGGAGKTCMRSIIFDNYLPRDALRLGITISLDQSQVHILRNLFLNLWDCGGQHRYVTEYLNRQKEYIFRYVGVMLFVFDINSMCRDSHGGIGGLGGVGGESSSATTDWKLPEMLEYFREAMRFIRQYSPKAKVFVLLHKIDLIHKDIREEIFQARKQEILNCIDSDNGMNIEFFGTSIWSDSLYLAYSSVVRSLVPHRDVLVEMMRGIAMACDAAEVALYERSTFLCLTHINRKAAADGSKALFLQGDGELRTTEVSETVKHFKLSCMNNTTSLGGLSITTETFTALLCPFTECTHVLVVSVDPKVNVELHRLNVNAARRRFEQFLDSDEPTACAMREVL” as the sequence, how does the “soluble on expression in E. coli” value read?
**A.** not soluble

**Q.** With “MAHHHHHHMKAGGGLVALLAQTVVAGDVNACCGVLRRVFSETLQEDRRLTALASNAARSVRRRSHHSAGTAPSFATAPAAATKTLSSSASSSSLSSSSALATSSGPDDVVNFARYAQHQRAQAHSFANAAAQAVLRTSFVPPDGVRPLAVAAAGTKGHPTDAEVPQSHRASSAFGAPTDTPIAQRVWKLARSTLSTDSALVKTSSLHVLCHTAQRTGYWEEALHFCEYLPQSPAPLFLSSLLRPDNVNPILQHCATRGWALDVTNAIRVLAEEHGSWSAALVVAQDAEHRLPCGEAYSLGVLVPYLAVSGATAQARQLFESGLAHGALIDPVLVQQLVMQTATLRQWETCLHMLQCLYRTQETAQLLPADADFFCRLMEVSPGWVTSLQLLHMARASDVKPNERTVAILLTQCDQAGAWREAAAVYDMAVKEDFIDSLAVGSTYHTLVRSFSAIQQWQKALEALSWMSKADDASLTAGMMELVTLCEQSGQWEAALSVGSTLMDSGVHLLSTQTSMALLFLCAKGAQWEFAMRLFDAQLHDVRVDPHPLSLCAVMQACVAARQWEAALRVYDAAKASQPRMVVPPLAHRIAVKACVSAGKWNLAIAVLDATRQDGLPLDNYSQRLGLWAAAIQGQWELSLAFFQGIPRRSRTPQDRMMVRHVTRAISPAVDAIALRFLQSH” as the sequence, how does the “soluble on expression in E. coli” value read?
**A.** not soluble

**Q.** Which “soluble on expression in E. coli” value does the source give for “MAHHHHHHMKAGKSGHRIYVGNIPGSMSKQEIIKAFEEFGKITEIDIKYNRNTNGTNYAFIEYESYKSAEKTIENKNGQKLKGYMLKVEYSIDKKNKEGGDLIALGGREAVSKGLLTNVRLPKNRSHYRVVVKNFPRKKIKLDGIKTFLMKAGKVIYTQLEDEITIAEYDCREGMLRAVNTLDRTMFNSTRKVYVRVLKDLPYDDSDADDSAQGCR” here?
**A.** not soluble

**Q.** For “MAHHHHHHMKCFYITEKGKKQNFRNIKLITFDLDHTIWNIDGLLNYADKECYEYMKKNYRRLYDYLQEEYQLSITNLVKQLLENKIEDNNDGVQTLTNMRIDALKFLAKKTNYDEGKFVSEIQELWKEKKNDVHLFISPGTLEYLRELKRRGYTLGAITNGDSDVNGIKFLNEIFTFVIRSMDYNHSKPSVEIFNIAENILKKKNFHFEIHQWMHVGDDVYTDIMGAKNKNINCAWITMFRDGSEVPPNDWYPYLKLKLEENGDSHLSQYDPFADGLFSRFRRRDVVLPYEYIDIE”, which “soluble on expression in E. coli” value is on record?
**A.** not soluble

**Q.** Which “soluble on expression in E. coli” value does the source give for “MAHHHHHHMKEEIPQLQNLERDLLKQRNKYLSKVGNLLNKDVVISNDEDNNKVVTTWGVCKRLEVITDESSEENKSGKGGSKDGGSNKREVPSSSSISGGVVHPNSSIEGKKYYYHFDLLRKIVGANFKKGIQVAGHRGYYFTGAGFFLHNAILQYAINFLVSKNYTPVYPPFFMKKNIMEECAELDDFEETLYKIASSGGNSTATTGTASGALVSKNLNQNDELSRDDLFLIATSEQPLCALHKDETIESKYLPLKYAGVSSCFRKEAGAHGKDIRGILRVHQFDKIEQFCLSLPQTSSKVHKQMMKTCEEFYQSLNIPYRIVSIVSGALNNAAAIKYDLEGYFPSSNQYRELVSCSNCTDYQSNNLNVKYVDSSVRITDVKEDRKKKENTGDHQDDDDDDEIGSDHEEFLKNFHTESRNNVHLLNGTMVAAQRFLCCLLENYQNGEGIVVPEKLRPYMNNVDFIPFIE” here?
**A.** not soluble

**Q.** For “MAHHHHHHMKGNKGANIAYPDKYHKVTEFFDREYGDLETCTKLNDCQKLLFYALRQQVEHGPCTSGAPFIWQVRERAKHDAWKQLGAMTKFEAMVHFVTHLEECIGGNVDWGEKLRDLNGMRDQQRVGVENGTGESNANEQTERGVSEAHWDADVQAHLQPSAENIEYLAREVMRLRGELQQVRPNRVVPTPIVVPPRKPIDYVSTKNIVPPARTLATVATRTALLNAQTTNNLVERQPQGWGEWFGL”, which “soluble on expression in E. coli” value is on record?
**A.** not soluble

**Q.** For “MAHHHHHHMKKKVELKFLGGLESYLEDKSKNVVTLEIESEKLSFENLIAYIRNHILVDRKDVFADHVLCDGTEFCQVVVDHVERKNYNLNEKAKIKPGIIVLINEYDWEIMHMYEYQIRDGDKLCFLSTLHGG”, which “soluble on expression in E. coli” value is on record?
**A.** not soluble

**Q.** For “MAHHHHHHMKLYSLAIVKPYPSGVEKQPVICSQAIDVSSFGFFQRNSAREFIVFLTRTVSNRVAKGVKTQITENGNVVFAHATFDGLVALAISDVEYNSRVAFTLLGDLVQQFQTTFRGKYDLVDGKEDNFLSWPHLTETLEKYQKPEEQDKILKIKRDIEDTKVIMYNAIDQIIERGQKIDDLVAQSEDLGMASKTFYKQAKKTNSGCCTVM”, which “soluble on expression in E. coli” value is on record?
**A.** soluble

**Q.** For “MAHHHHHHMKPTPLRGQPGLSRNGEGHNDRATSAASHLWARGARTQSPRRGQKESIATRTAVNNGGGPTHAATTRRSAQASRRTSTRYFKLPDAIAEKGEGAFSPTEPDCGATVLRHPASGRRHEEGEQGGSGIVCDVGVGAEKVAGGRLTTLRRTRGQPNKEASRTAFSMATDDVAPPTRLQYARMPRPMSQMNRTPLGVAVLGLQKIAARSETKRTRPLKRKRRINLPAAGPNGSDGLHSDLRG”, which “soluble on expression in E. coli” value is on record?
**A.** soluble

**Q.** Which “soluble on expression in E. coli” value does the source give for “MAHHHHHHMKTKVELKFLGGLESYLANKSKNYVSLEIESEEFNFENLIAYIRNHIIVDRKDVFSDFVMSDGNVKSCNVMIDDKEYSNYNLSDKGKIKPGIIVLINEYDWEILDTYTYKIKNNDKICFLSTLHGG” here?
**A.** soluble

**Q.** Which “soluble on expression in E. coli” value does the source give for “MAHHHHHHMKYMPQRPCIGICQGCWTVQLGGVNQYIQIWRYENLKHRYDCRKQVEQDQEWLRTYVKPADDMMISKSNTLLRLVYREGNASTQSYKYLMQVSPHKEVELSGPSATLAATFQVIVGEEEGKYIHLVKGHKLDDVIPVTPTLGCSSKIMGPVRWSSTMNCLWR” here?
**A.** not soluble
